# According to patent publication US20180355014A1 (JUNO THERAPEUTICS, published 2018):
# B1: FWVKRGSKK (SEQ ID NO: 59) (peptide)
# peptide: FWVKRGSKK
# notes: synthetic 9-mer; the entry already carries the mutation
# B2: FWVQRGAKK (SEQ ID NO: 83) (peptide)
# peptide: FWVQRGAKK
# notes: synthetic 9-mer; the entry already carries the mutations
# B3: FWVHRGRKK (SEQ ID NO: 42) (peptide)
# peptide: FWVHRGRKK
# notes: as for B1
# B4: FWVQRGRKK (SEQ ID NO: 55) (peptide)
# peptide: FWVQRGRKK
# notes: as for B1
# B5: FWVQRGSKK (SEQ ID NO: 79) (peptide)
# peptide: FWVQRGSKK
# notes: as for B2
# B6: FWVKRGNKK (SEQ ID NO: 75) (peptide)
# peptide: FWVKRGNKK
# notes: as for B1
# B7: FWVLRGRKK (SEQ ID NO: 35) (peptide)
# peptide: FWVLRGRKK
# notes: as for B1
# B8: FWVKRGHKK (SEQ ID NO: 67) (peptide)
# peptide: FWVKRGHKK
# notes: as for B1
# B9: FWVKRGLKK (SEQ ID NO: 63) (peptide)
# peptide: FWVKRGLKK
# notes: as for B1
# B10: FWVKRGAKK (SEQ ID NO: 71) (peptide)
# peptide: FWVKRGAKK
# notes: as for B1
# B11: FWVQRGNKK (SEQ ID NO: 87) (peptide)
# peptide: FWVQRGNKK
# notes: as for B2
# B12: FWVSRGRKK (SEQ ID NO: 28) (peptide)
# peptide: FWVSRGRKK
# notes: as for B1
# B13: IFWVLRGRK (SEQ ID NO: 34) (peptide)
# peptide: IFWVLRGRK
# notes: as for B1
# B14: IFWVQRGSK (SEQ ID NO: 78) (peptide)
# peptide: IFWVQRGSK
# notes: as for B2
# B15: AFIIFWVQR (SEQ ID NO: 51) (peptide)
# peptide: AFIIFWVQR
# notes: as for B1
# B16: AFIIFWVLR (SEQ ID NO: 31) (peptide)
# peptide: AFIIFWVLR
# notes: as for B1
# B17: IIFWVKRGH (SEQ ID NO: 65) (peptide)
# peptide: IIFWVKRGH
# notes: as for B1
# B18: IIFWVQRGN (SEQ ID NO: 85) (peptide)
# peptide: IIFWVQRGN
# notes: as for B2
# B19: IIFWVQRGS (SEQ ID NO: 77) (peptide)
# peptide: IIFWVQRGS
# notes: as for B2
# B20: VAFIIFWVA (SEQ ID NO: 44) (peptide)
# peptide: VAFIIFWVA
# notes: as for B1
# B21: VAFIIFWVH (SEQ ID NO: 37) (peptide)
# peptide: VAFIIFWVH
# notes: as for B1
# B22: VAFIIFWVQ (SEQ ID NO: 50) (peptide)
# peptide: VAFIIFWVQ
# notes: as for B1
# B23: WVKRGRKKS (SEQ ID NO: 89) (peptide)
# peptide: WVKRGRKKS
# notes: as for B1
# B24: WVQRGSKKL (SEQ ID NO: 80) (peptide)
# peptide: WVQRGSKKL
# notes: as for B2
# B25: WVHRGRKKL (SEQ ID NO: 43) (peptide)
# peptide: WVHRGRKKL
# notes: as for B1
# B26: WVQRGAKKL (SEQ ID NO: 84) (peptide)
# peptide: WVQRGAKKL
# notes: as for B2
# B27: WVLRGRKKL (SEQ ID NO: 36) (peptide)
# peptide: WVLRGRKKL
# notes: as for B1
# B28: WVSRGRKKL (SEQ ID NO: 29) (peptide)
# peptide: WVSRGRKKL
# notes: as for B1
# B29: WVKRGLKKL (SEQ ID NO: 64) (peptide)
# peptide: WVKRGLKKL
# notes: as for B1
# B30: FIIFWVQRG (SEQ ID NO: 52) (peptide)
# peptide: FIIFWVQRG
# notes: as for B1
# B31: FIIFWVLRG (SEQ ID NO: 32) (peptide)
# peptide: FIIFWVLRG
# notes: as for B1
# B32: FIIFWVSRG (SEQ ID NO: 25) (peptide)
# peptide: FIIFWVSRG
# notes: as for B1
# B33: FWVARGRKK (SEQ ID NO: 48) (peptide)
# peptide: FWVARGRKK
# notes: as for B1
# Target: T1, HLA-A*11:01 (human)
# T1 construct: Recombinant MHC class I molecule without the test peptide; the peptide is the other partner
# Experiment: REVEAL MHC-peptide binding assay, recombinant HLA-A*11:01
# Protocol: (§1) Specifically, assessment was of a series of overlapping 9-mer peptides derived from the sequence […] (set forth in SEQ ID NO: 7), which contains a portion of the CD28 transmembrane domain and 4-1BB costimulatory domain spanning the junction between the domains (bond joining the two amino acids noted in underline). In addition, a series of overlapping 9-mer peptides of each of a number of different variants of this portion also were assessed, each variant containing a mutation or mutations in this region as described in Example 2.
# (§2) The various 9-mer overlapping peptides were synthesized and their purity tested by MALDI-TOF Mass Spectrometry.
row,In Vitro Score,Binder
1,6.5 % of positive control peptide,FWVKRGRKK (synthetic 9-mer) [FWVKRGRKK (SEQ ID NO: 21)]
2,5.6 % of positive control peptide,B1
3,18.3 % of positive control peptide,B2
4,5.6 % of positive control peptide,B3
5,5.7 % of positive control peptide,B4
6,6.8 % of positive control peptide,B5
7,7.3 % of positive control peptide,B6
8,5 % of positive control peptide,B7
9,27.6 % of positive control peptide,B8
10,25.3 % of positive control peptide,B9
11,13.2 % of positive control peptide,B10
12,5.9 % of positive control peptide,B11
13,6.3 % of positive control peptide,B12
14,29.3 % of positive control peptide,IFWVKRGRK (synthetic 9-mer) [IFWVKRGRK (SEQ ID NO: 20)]
15,29.3 % of positive control peptide,B13
16,103 % of positive control peptide,B14
17,25.9 % of positive control peptide,AFIIFWVKR (synthetic 9-mer) [AFIIFWVKR (SEQ ID NO: 17)]
18,15 % of positive control peptide,B15
19,17.2 % of positive control peptide,B16

row,In Vitro Score,Binder
1,19.5 % of positive control peptide,B17
2,29 % of positive control peptide,B18
3,16.9 % of positive control peptide,B19
4,2.8 % of positive control peptide,B20
5,12.3 % of positive control peptide,B21
6,3.9 % of positive control peptide,B22
7,4.8 % of positive control peptide,WVKRGRKKL (synthetic 9-mer) [WVKRGRKKL (SEQ ID NO: 22)]
8,6.7 % of positive control peptide,B23
9,5.9 % of positive control peptide,B24
10,5.6 % of positive control peptide,B25
11,3.8 % of positive control peptide,B26
12,3.2 % of positive control peptide,B27
13,4.4 % of positive control peptide,B28
14,22.1 % of positive control peptide,B29
15,0.4 % of positive control peptide,FIIFWVKRG (synthetic 9-mer) [FIIFWVKRG (SEQ ID NO: 18)]
16,1.5 % of positive control peptide,B30
17,2.4 % of positive control peptide,B31
18,5.1 % of positive control peptide,B32

# Target: T2, HLA-B*08:01 (human)
# T2 construct: Recombinant MHC class I molecule without the test peptide; the peptide is the other partner
# Experiment: REVEAL MHC-peptide binding assay, recombinant HLA-B*08:01
# Protocol: as §1, §2
row,In Vitro Score,Binder
1,0 % of positive control peptide,FWVKRGRKK (synthetic 9-mer) [FWVKRGRKK (SEQ ID NO: 21)]
2,0.1 % of positive control peptide,B1
3,0 % of positive control peptide,B2
4,0 % of positive control peptide,B3
5,1.9 % of positive control peptide,B4
6,0 % of positive control peptide,B5
7,0.1 % of positive control peptide,B6
8,0 % of positive control peptide,B7
9,0.4 % of positive control peptide,B8
10,0.3 % of positive control peptide,B10
11,0 % of positive control peptide,B11
12,0 % of positive control peptide,B33
13,0 % of positive control peptide,B12
14,0.4 % of positive control peptide,IFWVKRGRK (synthetic 9-mer) [IFWVKRGRK (SEQ ID NO: 20)]
15,0 % of positive control peptide,B13
16,0 % of positive control peptide,B14
17,1.9 % of positive control peptide,AFIIFWVKR (synthetic 9-mer) [AFIIFWVKR (SEQ ID NO: 17)]

row,In Vitro Score,Binder
1,0 % of positive control peptide,B15
2,0.2 % of positive control peptide,B16
3,0.1 % of positive control peptide,B17
4,0 % of positive control peptide,B18
5,0.1 % of positive control peptide,B19
6,0 % of positive control peptide,B21
7,28.5 % of positive control peptide,WVKRGRKKL (synthetic 9-mer) [WVKRGRKKL (SEQ ID NO: 22)]
8,4.3 % of positive control peptide,B23
9,19.2 % of positive control peptide,B25
10,11.4 % of positive control peptide,B26
11,4 % of positive control peptide,B27
12,6.2 % of positive control peptide,B28
13,65.7 % of positive control peptide,B29
14,0.1 % of positive control peptide,FIIFWVKRG (synthetic 9-mer) [FIIFWVKRG (SEQ ID NO: 18)]
15,0.6 % of positive control peptide,B30
16,0.2 % of positive control peptide,B31
17,0.4 % of positive control peptide,B32
